Experimental data published in patent US8828923B2, “Insulin derivatives” (Novo Nordisk A/S, priority 2003, dated 2014).

Tests used:
Sprague Dawley male rats = assay: Assay (II) potency relative to human insulin, euglycaemic clamp with i.v. infusion; format: in vivo; conditions: rat clamp, i.v. infusion for 300 min, 15 and 20 pmol/min/kg
Text: Sprague Dawley male rats weighing 238-383 g on the experimental day were used for the clamp experiment. The rats had free access to feed under controlled ambient conditions and were fasted overnight (from 3 pm) prior to the clamp experiment.
The rats were acclimatized in the animal facilities for at least 1 week prior to the surgical procedure. Approximately 1 week prior to the clamp experiment Tygon catheters were inserted under halothane anaesthesia into the jugular vein (for infusion) and the carotid artery (for blood sampling) and exteriorised and fixed on the back of the neck. The rats were given Streptocilin vet. (Boehringer Ingelheim; 0.15 ml/rat, i.m.) post-surgically and placed in an animal care unit (25° C.) during the recovery period. In order to obtain analgesia, Anorphin (0.06 mg/rat, s.c.) was administered during anaesthesia and Rimadyl (1.5 mg/kg, s.c.) was administered after full recovery from the anaesthesia (2-3 h) and again once daily for 2 days.
The clamp technique employed was adapted from (1). At 7 am on the experimental day overnight fasted (from 3 pm the previous day) rats were weighed and connected to the sampling syringes and infusion system (Harvard 22 Basic pumps, Harvard, and Perfectum Hypodermic glass syringe, Aldrich) and then placed into individual clamp cages where they rested for ca. 45 min before start of experiment. The rats were able to move freely on their usual bedding during the entire experiment and had free access to drinking water. […] Plasma glucose levels were measured at 10 min intervals throughout and infusion of 20% aqueous glucose was adjusted accordingly in order to maintain euglyceamia. Samples of re-suspended erythrocytes were pooled from each rat and returned in about ½ ml volumes via the carotid catheter.
Rats were killed at the end of experiment using a pentobarbital overdose.
Test compounds and doses: Insulins to be tested were diluted from a stock solution containing 97 μM of the insulin derivative in 5 mM phosphate pH 7.7. The final concentration in the solution ready for use was 0.45 μM of the insulin derivative, 5 mM of phosphate, 100 mM of sodium chloride, 0.007% of polysorbate 20. The pH was 7.7 and the i.v. infusion rate was 15 and 20 pmol-min^−1−kg^−1.
Both stock solutions were stored at −20 C. and thawed overnight at 4° C. before use. The solutions were gently turned upside down several times 15 min before they were transferred to the infusion syringes.

human insulin receptor = human insulin receptor (Homo sapiens, UniProt P06213); assay: Assay (I) insulin receptor binding, SPA antibody capture assay; conditions: recombinant human insulin receptor - exon 11, A14 Tyr[125I]-human insulin tracer
Chain of human insulin receptor (P06213 28-746 isoform P06213-2 limits assumed): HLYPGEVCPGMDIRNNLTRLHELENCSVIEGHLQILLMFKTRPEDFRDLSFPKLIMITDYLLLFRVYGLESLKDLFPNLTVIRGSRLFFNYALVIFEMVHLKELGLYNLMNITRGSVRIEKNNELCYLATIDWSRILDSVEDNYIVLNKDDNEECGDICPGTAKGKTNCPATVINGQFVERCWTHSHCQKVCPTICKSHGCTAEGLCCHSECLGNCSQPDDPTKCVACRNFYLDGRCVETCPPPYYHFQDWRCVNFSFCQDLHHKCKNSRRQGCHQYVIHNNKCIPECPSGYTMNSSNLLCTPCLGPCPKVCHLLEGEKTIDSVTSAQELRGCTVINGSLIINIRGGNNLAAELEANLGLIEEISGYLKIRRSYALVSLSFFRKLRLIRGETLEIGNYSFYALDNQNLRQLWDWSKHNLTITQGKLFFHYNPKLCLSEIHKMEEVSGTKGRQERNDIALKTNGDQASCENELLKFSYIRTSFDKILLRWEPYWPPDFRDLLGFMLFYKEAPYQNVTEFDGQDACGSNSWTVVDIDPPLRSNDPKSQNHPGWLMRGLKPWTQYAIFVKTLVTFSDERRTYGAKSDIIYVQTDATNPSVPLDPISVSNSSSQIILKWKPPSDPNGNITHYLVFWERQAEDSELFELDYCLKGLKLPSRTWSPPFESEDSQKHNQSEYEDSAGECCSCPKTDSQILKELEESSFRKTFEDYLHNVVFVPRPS
Chain of human insulin receptor (P06213 763-1382 partner limits assumed): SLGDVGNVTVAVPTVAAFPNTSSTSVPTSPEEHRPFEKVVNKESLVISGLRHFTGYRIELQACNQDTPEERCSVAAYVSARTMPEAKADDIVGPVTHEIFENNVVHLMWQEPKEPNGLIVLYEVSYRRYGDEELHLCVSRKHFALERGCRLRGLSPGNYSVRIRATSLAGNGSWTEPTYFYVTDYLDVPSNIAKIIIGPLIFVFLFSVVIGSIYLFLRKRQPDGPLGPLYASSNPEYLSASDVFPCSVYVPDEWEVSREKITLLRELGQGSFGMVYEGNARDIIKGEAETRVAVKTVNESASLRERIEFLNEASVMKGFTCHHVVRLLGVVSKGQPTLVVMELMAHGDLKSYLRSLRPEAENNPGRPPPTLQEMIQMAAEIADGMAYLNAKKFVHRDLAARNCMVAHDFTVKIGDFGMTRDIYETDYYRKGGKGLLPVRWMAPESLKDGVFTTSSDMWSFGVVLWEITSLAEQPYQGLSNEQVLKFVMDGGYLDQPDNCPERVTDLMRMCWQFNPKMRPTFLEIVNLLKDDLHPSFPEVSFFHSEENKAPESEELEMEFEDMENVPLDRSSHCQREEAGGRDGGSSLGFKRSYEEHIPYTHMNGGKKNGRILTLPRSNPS
Description: SPA-PVT antibody-binding beads, anti-mouse reagent (Amersham Biosciences, Cat No. PRNQ0017) were mixed with 25 ml of binding buffer (100 mM HEPES pH 7.8; 100 mM sodium chloride, 10 mM MgSO4, 0.025% Tween-20). […] A total of 100 μl was then added and a dilution series is made from appropriate samples. To the dilution series was then added 100 μl of reagent mix and the samples were incubated for 16 hours while gently shaken. The phases were the then separated by centrifugation for 1 min and the plates counted in a Topcounter. The binding data were fitted using the nonlinear regression algorithm in the GraphPad Prism 2.01 (GraphPad Software, San Diego, Calif.).
Specific antibodies (F12) were produced by monoclonal technique: RBF mice were immunized by injecting 50 μg of purified mIR in FCA subcutaneously followed by two injections with 20 μg of mIR in FIA. Highresponder mice were boosted intravenously with 25 μg of mIR and the spleens were harvested after 3 days. Spleen cells were fused with the myeloma Fox cell line (Kohler, G & Milstein C. (1976), European J. Immunology, 6:511-19; Taggart RT et al (1983), Science 219:1228-30). Supernatants were screened for antibody production in a mIR specific ELISA. Positive wells were cloned and tested in Western blotting.

[1] = Hydrophobicity (hydrophobic index) k′rel relative to human insulin by isocratic RP-HPLC; format: physicochemical; conditions: LiChrosorb RP18, isocratic elution, 40° C., pH 7.3 phosphate/acetonitrile
Description: The elution was monitored by following the UV absorption of the eluate at 214 nm. Void time, t0, was found by injecting 0.1 mM sodium nitrate.

Substance	Receptor binding (% of human insulin) (human insulin receptor)	Potency relative to human insulin (Sprague Dawley male rats)	k′rel (hydrophobic index relative to human insulin) [1]
N^εB29—(N^α-(HOOC(CH2)14CO)-γ-Glu) des(B30) Human Insulin	26 % of human insulin	>50%	0.87
N^εB29—(N—(Gly-OC(CH2)13CO-γ-L-Glu) des(B30) Human Insulin	22 % of human insulin		0.58
N^εB29—(N—(Gly-OC(CH2)14CO-γ-L-Glu) des(B30) Human Insulin	32 % of human insulin	>50%	0.88
N^εB29—(N—(HOOC(CH2)14CO-ε-L-LysCO—) des(B30) Human Insulin	5.7 % of human insulin		0.90
N^εB29—(N—(L-Glu-OC(CH2)14CO-γ-L-Glu) des(B30) Human Insulin	13 % of human insulin		0.33
N^εB29—(N—(L-Glu-OC(CH2)14CO—) des(B30) Human Insulin	9.4 % of human insulin		1.17
N^εB29—(N—(L-Sar-OC(CH2)13CO-γ-L-Glu) des(B30) Human Insulin	20 % of human insulin		0.63
N^εB29—(N—HOOC(CH2)8CO-γ-Glu) des(B30) human insulin			0.45
N^εB29—(N—HOOC(CH2)13CO-β-L-Asp) des(B30) Human Insulin	11 % of human insulin		0.47
N^εB29—(N—HOOC(CH2)14CO-β-D-Asp) des(B30) Human Insulin	37 % of human insulin		
N^εB29—(N—HOOC(CH2)15CO-γ-L-Glu) des(B30) Human Insulin	4 % of human insulin		1.13
N^εB29—(N—HOOC(CH2)16CO-α-Glu)-N-(AspAsp) des(B30) human insulin			1.07
N^εB29—(N—HOOC(CH2)16CO-α-L-Asp)—N-(β-L-Asp) des(B30) Human Insulin	14 % of human insulin		
N^εB29—(N—HOOC(CH2)16CO-α-L-Glu) des(B30) Human Insulin	16 % of human insulin		1.51
N^εB29—(N—HOOC(CH2)16CO-β-L-Asp) des(B30) Human Insulin	11 % of human insulin		1.54
N^εB29—(N—HOOC(CH2)16CO-γ-D-Glu) des(B30) Human Insulin	13 % of human insulin		1.4
N^εB29—[N—(HOOC(CH2)16CO)—N-(carboxymethyl)-β-Ala] des(B30) Human Insulin	9.4 % of human insulin		1.13

Second part, led by results:

Receptor binding (% of human insulin) (human insulin receptor)	Substance	Potency relative to human insulin (Sprague Dawley male rats)	k′rel (hydrophobic index relative to human insulin) [1]
11 % of human insulin	N^εB29—(N^α-(HOOC(CH2)16CO)-γ-Glu—N-(γ-Glu)) des(B30) Human Insulin	>50%	1.17
9.1 % of human insulin	N^εB29—(N—(Gly-OC(CH2)16CO-γ-L-Glu) des(B30) Human Insulin		1.57
13 % of human insulin	N^εB29—(N—(L-Asp-OC(CH2)16CO)-γ-L-Glu) des(B30) Human Insulin		0.70
15 % of human insulin	N^εB29—(N—HOOC(CH2)13CO-β-L-Glu) des(B30) Human Insulin		0.54
16 % of human insulin	N^εB29—(N—HOOC(CH2)14CO-β-L-Asp) des(B30) Human Insulin	>50%	0.69
5.4 % of human insulin	N^εB29—(N—HOOC(CH2)15CO-β-L-Asp) des(B30) Human Insulin		1.09
13 % of human insulin	N^εB29—(N—HOOC(CH2)16CO-α-L-Asp) des(B30) Human Insulin		1.49
11 % of human insulin	N^εB29—(N—HOOC(CH2)16CO-α-L-Glu)—N—(β-L-Asp) des(B30) Human Insulin		1.11
7 % of human insulin	N^εB29—(N—HOOC(CH2)16CO-δ-L-Aad) des(B30) Human Insulin		0.84
46 % of human insulin	N^εB29—[N^α-(HOOC(CH2)11)NHCO(CH2)3CO)-γ-L-Glu] des(B30) Human Insulin		0.42
9.2 % of human insulin	NεB29—(Nα-(HOOC(CH2)16CO)-γ-Glu) des(B30) Human Insulin	>50%	1.15
